Test results taken from the supplement of paper PMC10899765.

What follows are sequences tested on MCF10A (assay: percent viability (nuclei count relative to siNT); higher = more viable cells). Details: 20 nM; 72 h.
Procedure: (§1)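 After 72 h, cells were fixed and stained with Hoechst and anti-fibrillarin, and nucleoli per nucleus were counted with CellProfiler. Values are plate-adjusted percent effect for the one-nucleolus and 5+ nucleoli phenotypes, normalised to siNT (0%) and to the positive controls siNOL11 or siKIF11 (100%), as the mean of biological triplicates. Percent viability is the nuclei count relative to siNT.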

| Sequence | percent viability [%] |
| --- | --- |
| AGGAGAGUGGAUUCCAGGUGGU [hsa-miR-5192] | 24.2 |
| UAACACUGUCUGGUAAAGAUGG [hsa-miR-141-3p] | 83 |
| GCGACCCAUACUUGGUUUCAG [hsa-miR-551b-3p] | 111 |
| AGAGAAGAAGAUCAGCCUGCA [hsa-miR-1253] | 84.6 |
| UAACGCAUAAUAUGGACAUGU [hsa-miR-3912] | 71.2 |
| AUCGUGCAUCCCUUUAGAGUGU [hsa-miR-517b-3p] | 35.2 |
| CAAAGAAUUCUCCUUUUGGGCU [hsa-miR-186-5p] | 59.3 |
| AUUGUCCCUCUCCCUUCCCAG [hsa-miR-4646-3p] | 50.3 |
| CAGCCAGCCCCUGCUCACCCCU [hsa-miR-6858-3p] | 30.6 |
| GUGGGUACGGCCCAGUGGGGGG [hsa-miR-1225-5p] | 94.3 |
| UAAUGAUUCAUCAGACUCAGAU [hsa-miR-580-5p] | 32.9 |
| ACCCCUGCCACUCACUGGCC [hsa-miR-6801-3p] | 62 |
| UGUAGGAACAGUUGAAUUUUGGCU [hsa-miR-8065] | 58.9 |
| ACAUUGCCAGGGAGUUU [hsa-miR-4317] | 45.1 |
| UCACCCUGCAUCCCGCACCCAG [hsa-miR-3620-3p] | 77 |

What follows are sequences tested on MCF10A (assay: one-nucleolus phenotype percent effect (relative to siNT 0% and siNOL11 100%); higher = more cells with one nucleolus (ribosome biogenesis inhibition)). Details: 20 nM; 72 h.
Procedure: as §1

| Sequence | one-nucleolus phenotype percent effect [%] |
| --- | --- |
| GUCCUCCAGGCCAUGAGCUGCGG [hsa-miR-4691-5p] | -11.3 |
| UUUGGCAAUGGUAGAACUCACACU [hsa-miR-182-5p] | 25 |
| CUCGGGCGGAGGUGGUUGAGUG [hsa-miR-4750-5p] | 14.8 |
| CACUGUUUCCUUUCUGAGUGGA [hsa-miR-892c-3p] | 1.69 |
| AUCAACAGACAUUAAUUGGGCGC [hsa-miR-421] | 23.1 |
| ACAACAGUGACUUGCUCUCCAA [hsa-miR-4709-5p] | 3.79 |
| CUUCUUGUGCUCUAGGAUUGU [hsa-miR-578] | 19.6 |
| UGAGGUGACCGCAGAUGGGAA [hsa-miR-7854-3p] | 29.8 |
| UUUAACAUGGGGGUACCUGCUG [hsa-miR-302c-5p] | -8.1 |
| AAAGACCCAUUGAGGAGAAGGU [hsa-miR-3667-5p] | 11.5 |
| AGGCAUGGGAGGUCAGGUGA [hsa-miR-3622b-5p] | 32.5 |
| CCUCCAAAGGGAAGCGCUUUCUGUU [hsa-miR-519d-5p] | -10.6 |
| AGGAGAAGUCGGGAAGGU [hsa-miR-5703] | -5.15 |
| CAAGCUCGCUUCUAUGGGUCUG [hsa-miR-99a-3p] | 23.3 |
| AUGGCCAGAGCUCACACAGAGG [hsa-miR-4435] | -11.4 |
| UGGCCCGGCGACGUCUCACGGUC [hsa-miR-4745-3p] | -29.1 |
| GCAGUCCAUGGGCAUAUACAC [hsa-miR-455-3p] | -12.4 |
| UAAUCUCAGCUGGCAACUGUGA [hsa-miR-216a-5p] | 6.23 |
| CGGGGCAGCUCAGUACAGGAU [hsa-miR-486-3p] | 47.2 |
| GGUGGGGGGUGUUGUUUU [hsa-miR-4472] | 9.55 |
| CGGGCUGUCCGGAGGGGUCGGCU [hsa-miR-4741] | -21.4 |
| GCAGAGAACAAAGGACUCAGU [hsa-miR-3919] | 38.7 |
| UAACGGCCGCGGUACCCUAA [hsa-miR-4485] | 0.183 |
| UUGGCCACCACACCUACCCCUU [hsa-miR-4701-5p] | 1.71 |
| CAGGCAGAAGUGGGGCUGACAGG [hsa-miR-6511a-5p] | 6.88 |
| GAAGAUGGACGUACUUU [hsa-miR-4426] | 31.4 |
| GCAGGAACUUGUGAGUCUCCU [hsa-miR-873-5p] | -17.4 |
| UUGUGAAGAAAGAAAUUCUUA [hsa-miR-3611] | 12.5 |
| GCUCAUCCCCAUCUCCUUUCAG [hsa-miR-6870-3p] | -31.1 |
